Columns and labels:
Assay in all cases: cell-based or functional assay
[1] = target: human IL-17A, untagged, E. coli derived (in house or Peprotech) (human) (UniProt Q16552)
[2] = target: cynomolgus IL-17A (cynomolgus)
[3] = target: human IL-17A derived from the HEK-EBNA expression system (human) (UniProt Q16552)
Chain of human IL-17A derived from the HEK-EBNA expression system (human) (Q16552 24-155): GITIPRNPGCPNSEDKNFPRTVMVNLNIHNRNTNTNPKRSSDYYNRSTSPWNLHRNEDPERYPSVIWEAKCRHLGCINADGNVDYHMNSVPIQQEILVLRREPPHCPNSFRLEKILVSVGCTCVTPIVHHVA

Chain of human IL-17A, untagged, E. coli derived (in house or Peprotech) (human) (Q16552 24-155): as above
Chain of cynomolgus IL-17A (cynomolgus) (Q16552 other isoform, or with tags, fused parts or gaps limits assumed): as the sequence (Q16552 24-155) above, with T3A, P8S, N34S, I77V, N78K, P104R counted along it

| Substance | OA synovial fibroblast IL-8 (IL-17A 1 ng/ml + TNF 0.01 ng/ml), % Inhibition at 50 nM antibody [1] [%] | OA synovial fibroblast IL-8 (IL-17A 10 ng/ml + TNF 1 ng/ml), % Inhibition at 50 nM antibody [1] [%] | cartilage explant IL-6 (IL-17A 10 ng/ml + TNF 1 ng/ml), % inhibition at 50 nM antibody [1] [%] | cartilage explant IL-6 (pg/ml), mean, IL-17A 10 ng/ml + TNF 1 ng/ml + antibody (55.00 pg/ml without antibody) [1] [pg/mL] | HT1080 IL-6 release, IgG IC50 [2] [nM] | HT1080 IL-6 release, IgG IC50 [3] [nM] |
| --- | --- | --- | --- | --- | --- | --- |
| hIgG1 isotype control (human IgG1 CAT002, Cambridge Antibody Technology Limited) | -1.3 | -3.9 | 3.3 | 53.2 |  |  |
| mAb317 (R & D Systems) (antibody) |  |  |  |  | 14.1 | 3.2 |
| mIgG1 isotype control (mouse IgG1, R & D Systems) (antibody) |  |  | 13.8 | 47.4 |  |  |
